Experimental data as given in the supplement of paper PMC10724198.
± gives the standard deviation of the averaged measurements.

What was measured:
Saccharomyces cerevisiae [1] = experiment: protein stability index of tFT-peptide fusion (C-terminal peptide) (PSI (0-1 scale)); higher = more stable (slower turnover); settings: genetic background: wild type; temperature: 30 C
Saccharomyces cerevisiae [2] = experiment: as above
Method: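 MPS profiling in S. cerevisiae of the tFT-X12 degron library: putative degron peptides plus stable controls, 12 aa, fused to the C-terminus of a sfGFP-mCherry timer. Cells are FACS-sorted into 8 mCherry/sfGFP bins and deep-sequenced. PSI runs from 0 (unstable) to 1 (stable). Backgrounds are wild type, das1Δ and doa10Δ at 30 °C, and wild type, das1Δ, cdc34-1 and cdc53-1 at 37 °C; 2-3 technical replicates each.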

[3] = genetic background: cdc34-1, temperature: 37 C
[4] = genetic background: cdc53-1, temperature: 37 C
[5] = genetic background: das1 deletion, temperature: 30 C
[6] = genetic background: das1 deletion, temperature: 37 C
[7] = genetic background: doa10 deletion, temperature: 30 C
[8] = genetic background: wild type, temperature: 30 C
[9] = genetic background: wild type, temperature: 37 C
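Note: PSI is a weighted mean of sequencing reads over stability bins, variants kept only with over 10 reads, mCherry proximal and sfGFP distal, peptide attached via GGGS linker.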

| Sequence | protein stability index (Saccharomyces cerevisiae [1]) | protein stability index (Saccharomyces cerevisiae [2]; [3]) | protein stability index (Saccharomyces cerevisiae [2]; [4]) | protein stability index (Saccharomyces cerevisiae [2]; [5]) | protein stability index (Saccharomyces cerevisiae [2]; [6]) | protein stability index (Saccharomyces cerevisiae [2]; [7]) | protein stability index (Saccharomyces cerevisiae [2]; [8]) | protein stability index (Saccharomyces cerevisiae [2]; [9]) |
| --- | --- | --- | --- | --- | --- | --- | --- | --- |
| FMSAGVSWIFFV | 0.343 ± 0.047 | 0.579 ± 0.021 | 0.7146 ± 0.0024 | 0.601 ± 0.021 | 0.7503 ± 0.0043 | 0.105 ± 0.013 | 0.13 ± 0.012 | 0.129 ± 0.011 |
| LPLVFYCFLLHS | 0.4422 ± 0.002 | 0.49 ± 0.026 | 0.523 ± 0.0057 | 0.394 ± 0.029 | 0.518 ± 0.0063 | 0.386 ± 0.01 | 0.376 ± 0.035 | 0.509 ± 0.015 |
| NYCLYFKLSRLS | 0.3897 ± 0.00059 | 0.62 ± 0.029 | 0.691 ± 0.016 | 0.603 ± 0.015 | 0.655 ± 0.021 | 0.221 ± 0.02 | 0.25 ± 0.017 | 0.429 ± 0.011 |
| LPLHTLLLCPPV | 0.493 ± 0.031 | 0.447 ± 0.037 | 0.459 ± 0.013 | 0.37 ± 0.03 | 0.4988 ± 0.003 | 0.345 ± 0.0046 | 0.382 ± 0.024 | 0.4782 ± 0.0033 |
| YLGSLQVPVHLF | 0.352 ± 0.011 | 0.676 ± 0.024 | 0.725 ± 0.062 | 0.639 ± 0.022 | 0.756 ± 0.011 | 0.226 ± 0.013 | 0.255 ± 0.019 | 0.455 ± 0.011 |
| GPILVWVMADWG | 0.447 ± 0.041 | 0.43 ± 0.036 | 0.506 ± 0.028 | 0.328 ± 0.036 | 0.5493 ± 0.00096 | 0.293 ± 0.0078 | 0.337 ± 0.018 | 0.518 ± 0.012 |
| FHFLFLFSLVSV | 0.416 ± 0.017 | 0.294 ± 0.074 | 0.316 ± 0.03 | 0.269 ± 0.038 | 0.412 ± 0.017 | 0.293 ± 0.0034 | 0.279 ± 0.012 | 0.37513 ± 0.00036 |
| YIFLPIALVFFP | 0.363 ± 0.083 | 0.435 ± 0.021 | 0.536 ± 0.014 | 0.304 ± 0.037 | 0.543 ± 0.022 | 0.333 ± 0.02 | 0.319 ± 0.014 | 0.488 ± 0.015 |
| WQSFRDKLIKGN | 0.264 ± 0.071 | 0.646 ± 0.044 | 0.716 ± 0.026 | 0.643 ± 0.028 | 0.754 ± 0.041 | 0.188 ± 0.034 | 0.204 ± 0.036 | 0.3754 ± 0.0012 |
| IVWVSSFVCRSV | 0.43 ± 0.044 | 0.508 ± 0.082 | 0.574 ± 0.02 | 0.436 ± 0.0072 | 0.524 ± 0.0075 | 0.447 ± 0.015 | 0.4257 ± 0.003 | 0.516 ± 0.025 |
| FCRLTFCFFAFL | 0.47 ± 0.035 | 0.573 ± 0.051 | 0.646 ± 0.0074 | 0.499 ± 0.019 | 0.641 ± 0.0092 | 0.446 ± 0.017 | 0.438 ± 0.014 | 0.5586 ± 0.00064 |
| CICAFCSLNLLC | 0.435 ± 0.011 | 0.695 ± 0.01 | 0.774 ± 0.016 | 0.61 ± 0.012 | 0.765 ± 0.011 | 0.289 ± 0.0064 | 0.324 ± 0.023 | 0.607 ± 0.013 |
| VSVQVRCCPWVG | 0.7153 ± 0.0063 | 0.679 ± 0.037 | 0.735 ± 0.013 | 0.622 ± 0.011 | 0.728 ± 0.014 | 0.618 ± 0.031 | 0.629 ± 0.016 | 0.709 ± 0.011 |
| FRTTGQAPPSKP | 0.568 ± 0.2 | 0.674 ± 0.064 | 0.743 ± 0.013 | 0.633 ± 0.013 | 0.727 ± 0.022 | 0.64 ± 0.038 | 0.6444 ± 0.0056 | 0.71966 ± 0.0003 |
| GFNIFFFFFFFV | 0.326 ± 0.0089 | 0.21 ± 0.051 | 0.223 ± 0.035 | 0.202 ± 0.02 | 0.297 ± 0.019 | 0.281 ± 0.0099 | 0.173 ± 0.006 | 0.247 ± 0.021 |
| YMPKHKIQKLMQ | 0.491 ± 0.067 | 0.701 ± 0.02 | 0.728 ± 0.032 | 0.639 ± 0.023 | 0.7635 ± 0.0046 | 0.425 ± 0.012 | 0.46 ± 0.023 | 0.607 ± 0.018 |
| ACVRLVLCVCRV | 0.339 ± 0.0039 | 0.281 ± 0.011 | 0.341 ± 0.042 | 0.237 ± 0.04 | 0.4091 ± 0.0036 | 0.211 ± 0.015 | 0.225 ± 0.028 | 0.375 ± 0.02 |
| MSVLAFVCCLSG | 0.336 ± 0.0033 | 0.3532 ± 0.0026 | 0.311 ± 0.0052 | 0.289 ± 0.033 | 0.393 ± 0.022 | 0.2478 ± 0.0014 | 0.268 ± 0.027 | 0.3585 ± 0.0029 |
| DHSWGGLLICTC | 0.473 ± 0.039 | 0.476 ± 0.011 | 0.492 ± 0.042 | 0.343 ± 0.049 | 0.546 ± 0.022 | 0.33 ± 0.026 | 0.364 ± 0.028 | 0.513 ± 0.017 |
| LFFGLCFVFFGF | 0.378 ± 0.046 | 0.384 ± 0.022 | 0.459 ± 0.0067 | 0.362 ± 0.032 | 0.48 ± 0.0058 | 0.407 ± 0.015 | 0.366 ± 0.013 | 0.4582 ± 0.0013 |

| Sequence | protein stability index (Saccharomyces cerevisiae [1]) | protein stability index (Saccharomyces cerevisiae [2]; [3]) | protein stability index (Saccharomyces cerevisiae [2]; [4]) | protein stability index (Saccharomyces cerevisiae [2]; [5]) | protein stability index (Saccharomyces cerevisiae [2]; [6]) | protein stability index (Saccharomyces cerevisiae [2]; [7]) | protein stability index (Saccharomyces cerevisiae [2]; [8]) | protein stability index (Saccharomyces cerevisiae [2]; [9]) |
| --- | --- | --- | --- | --- | --- | --- | --- | --- |
| NLDRYYKKIKLI | 0.15 ± 0.025 | 0.338 ± 0.025 | 0.69 ± 0.013 | 0.689 ± 0.063 | 0.733 ± 0.019 | 0.052 ± 0.03 | 0.0742 ± 0.029 | 0.0913 ± 0.021 |
| QERKILGRIKQA | 0.265 ± 0.12 | 0.51 ± 0.078 | 0.6853 ± 0.00099 | 0.651 ± 0.05 | 0.7081 ± 0.0052 | 0.0853 ± 0.0029 | 0.0987 ± 0.035 | 0.161 ± 0.026 |
| IVSFRLDLSLAV | 0.534 ± 0.051 | 0.532 ± 0.069 | 0.5949 ± 0.0024 | 0.452 ± 0.023 | 0.55891 ± 0.00017 | 0.448 ± 0.014 | 0.458 ± 0.02 | 0.5467 ± 0.0024 |
| SWWISKWVGLNC | 0.52 ± 0.034 | 0.705 ± 0.0095 | 0.778 ± 0.01 | 0.636 ± 0.013 | 0.7821 ± 0.0033 | 0.367 ± 0.0053 | 0.402 ± 0.043 | 0.6358 ± 0.0049 |
| VYFRMGFMRVCV | 0.4611 ± 0.0042 | 0.487 ± 0.05 | 0.5 ± 0.037 | 0.416 ± 0.032 | 0.554 ± 0.0079 | 0.32 ± 0.013 | 0.344 ± 0.027 | 0.493 ± 0.015 |
| PPSPPPLSASVP | 0.578 ± 0.14 | 0.661 ± 0.04 | 0.698 ± 0.025 | 0.667 ± 0.053 | 0.698 ± 0.02 | 0.677 ± 0.024 | 0.669 ± 0.015 | 0.7 ± 0.0078 |
| IILRPQYVHYFL | 0.454 ± 0.018 | 0.532 ± 0.035 | 0.594 ± 0.027 | 0.497 ± 0.025 | 0.5597 ± 0.00026 | 0.482 ± 0.023 | 0.484 ± 0.025 | 0.5457 ± 0.00084 |
| LLSLPTTNLMAF | 0.484 ± 0.014 | 0.575 ± 0.029 | 0.61058 ± 0.00044 | 0.49 ± 0.026 | 0.615 ± 0.0099 | 0.356 ± 0.02 | 0.403 ± 0.018 | 0.56467 ± 0.00055 |
| GWVQFVKAAVLF | 0.36 ± 0.053 | 0.655 ± 0.063 | 0.7587 ± 0.0019 | 0.59 ± 0.031 | 0.73964 ± 3.5e-06 | 0.197 ± 0.0058 | 0.211 ± 0.043 | 0.4443 ± 0.0032 |
| AGMLMCLYLFFV | 0.468 ± 0.027 | 0.562 ± 0.05 | 0.661 ± 0.047 | 0.467 ± 0.032 | 0.598 ± 0.022 | 0.428 ± 0.0066 | 0.449 ± 0.028 | 0.5673 ± 0.0029 |
| IPHLNCCCCLVR | 0.442 ± 0.052 | 0.527 ± 0.013 | 0.497 ± 0.023 | 0.334 ± 0.035 | 0.5878 ± 0.0048 | 0.272 ± 0.0053 | 0.328 ± 0.02 | 0.5503 ± 0.0019 |
| VFVLFCAFVRAL | 0.2111 ± 0.00022 | 0.212 ± 0.025 | 0.413 ± 0.032 | 0.286 ± 0.036 | 0.482 ± 0.014 | 0.0841 ± 0.013 | 0.0907 ± 0.0079 | 0.096736 ± 8.4e-05 |
| LLVFSLLYPCLV | 0.345 ± 0.021 | 0.324 ± 0.0049 | 0.362 ± 0.017 | 0.289 ± 0.031 | 0.419 ± 0.013 | 0.241 ± 0.0036 | 0.272 ± 0.02 | 0.3913 ± 0.0032 |
| YMVSLSFTLVRS | 0.481 ± 0.041 | 0.382 ± 0.038 | 0.454 ± 0.054 | 0.32 ± 0.022 | 0.474 ± 0.033 | 0.297 ± 0.024 | 0.333 ± 0.013 | 0.4552 ± 0.0036 |
| WLSFAIECGMVW | 0.357 ± 0.045 | 0.1938 ± 0.0014 | 0.28 ± 0.058 | 0.252 ± 0.023 | 0.3286 ± 0.0012 | 0.2135 ± 0.0014 | 0.249 ± 0.026 | 0.287 ± 0.032 |
| LLASFWKFIVNI | 0.23 ± 0.016 | 0.613 ± 0.036 | 0.722 ± 0.015 | 0.641 ± 0.058 | 0.7 ± 0.073 | 0.139 ± 0.012 | 0.166 ± 0.012 | 0.166 ± 0.011 |
| TDFICLLWLLHW | 0.565 ± 0.12 | 0.552 ± 0.035 | 0.535 ± 0.058 | 0.422 ± 0.02 | 0.5698 ± 0.0043 | 0.3864 ± 0.0017 | 0.41 ± 0.032 | 0.535 ± 0.014 |
| GQRIKWGPIYLT | 0.249 ± 0.019 | 0.352 ± 0.079 | 0.336 ± 0.0081 | 0.366 ± 0.028 | 0.444 ± 0.013 | 0.397 ± 0.034 | 0.22 ± 0.027 | 0.365 ± 0.052 |
| LDTTSRSRAKIS | 0.164 ± 0.032 | 0.509 ± 0.031 | 0.6775 ± 0.0026 | 0.625 ± 0.022 | 0.718 ± 0.013 | 0.0782 ± 0.032 | 0.0968 ± 0.048 | 0.138 ± 0.021 |
